Key:
[1] = target: T1, human PSMA expressed on cells (LNCaP, 22Rv1, PC3 cells stably transfected to express human PSMA) (human, UniProt Q04609 1-750); assay: cell-binding assay on PSMA+ cells
T1 construct: whole, on cells; Type II transmembrane protein; The background section calls it a non-covalent homodimer; also called Prostate Specific Membrane Antigen; Glutamate Carboxypeptidase II

[2] = target: human PSMA protein (ELISA) (human, UniProt Q04609 44-750, limits assumed); assay: ELISA on human PSMA protein
Description: The two indicated antibodies were tested for binding in a standard ELISA assay to human PSMA. The human PSMA protein was used at a concentration of 2 μg/mL to capture UniAbs at 50 ng/mL. Antibody binding was detected with a goat anti-human IgG HRP conjugated antibody (ThermoFisher 31413). All antibodies were diluted in 1× PBS with 0.05% Tween-20 and 1% dry milk powder.

T1 sequence (Q04609 whole entry): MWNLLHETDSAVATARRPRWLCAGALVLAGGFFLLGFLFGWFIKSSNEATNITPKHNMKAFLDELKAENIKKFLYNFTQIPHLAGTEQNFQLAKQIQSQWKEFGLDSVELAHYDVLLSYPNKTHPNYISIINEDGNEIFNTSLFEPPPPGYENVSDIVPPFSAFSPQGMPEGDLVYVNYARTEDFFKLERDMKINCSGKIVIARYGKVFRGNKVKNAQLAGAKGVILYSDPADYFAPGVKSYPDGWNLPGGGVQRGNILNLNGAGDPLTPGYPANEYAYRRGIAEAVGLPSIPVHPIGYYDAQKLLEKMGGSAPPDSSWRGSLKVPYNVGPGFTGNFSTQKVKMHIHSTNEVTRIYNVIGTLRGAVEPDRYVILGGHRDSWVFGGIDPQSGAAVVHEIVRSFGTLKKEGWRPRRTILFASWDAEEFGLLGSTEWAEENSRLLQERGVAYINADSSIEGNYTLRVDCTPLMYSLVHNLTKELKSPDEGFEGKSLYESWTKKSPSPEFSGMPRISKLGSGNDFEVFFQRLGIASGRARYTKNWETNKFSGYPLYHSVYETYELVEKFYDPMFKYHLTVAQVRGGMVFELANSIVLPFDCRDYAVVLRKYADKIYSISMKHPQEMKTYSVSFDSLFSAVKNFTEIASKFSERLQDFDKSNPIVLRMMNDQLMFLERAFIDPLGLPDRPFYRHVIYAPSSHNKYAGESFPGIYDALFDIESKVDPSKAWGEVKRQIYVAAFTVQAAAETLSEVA
Chain of human PSMA protein (ELISA) (Q04609 44-750 limits assumed): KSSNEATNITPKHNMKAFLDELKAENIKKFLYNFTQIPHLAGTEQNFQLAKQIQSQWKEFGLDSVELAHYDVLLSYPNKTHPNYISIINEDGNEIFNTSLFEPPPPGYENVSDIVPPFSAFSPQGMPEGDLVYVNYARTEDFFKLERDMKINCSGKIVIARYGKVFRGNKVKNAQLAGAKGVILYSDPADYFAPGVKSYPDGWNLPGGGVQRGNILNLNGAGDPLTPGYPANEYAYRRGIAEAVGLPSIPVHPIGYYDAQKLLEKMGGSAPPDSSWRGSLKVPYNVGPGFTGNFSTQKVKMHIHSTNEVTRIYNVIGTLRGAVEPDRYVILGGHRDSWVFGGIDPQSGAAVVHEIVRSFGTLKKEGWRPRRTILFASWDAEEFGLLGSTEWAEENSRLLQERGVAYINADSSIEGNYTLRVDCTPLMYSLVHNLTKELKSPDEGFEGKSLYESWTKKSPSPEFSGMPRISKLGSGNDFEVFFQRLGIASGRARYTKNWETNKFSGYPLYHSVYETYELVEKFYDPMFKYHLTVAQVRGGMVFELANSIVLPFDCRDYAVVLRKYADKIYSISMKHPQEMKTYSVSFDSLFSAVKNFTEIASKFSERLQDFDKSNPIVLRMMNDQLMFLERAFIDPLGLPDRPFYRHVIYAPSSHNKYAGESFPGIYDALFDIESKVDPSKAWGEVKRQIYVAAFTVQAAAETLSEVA

| binding result [1] | binding result [2] | Binder |
| --- | --- | --- |
| binds | binds | Anti-PSMA heavy chain-only antibody (UniAb) Clone ID 325972 (antibody, V domains shown, Heavy chain-only antibody with no light chain) VH: EVQLLESGGGVVQPGRSLRLSCAASGFSFSGYGMHWVRQAPGKEREWVAVISYDGSNKYYADSVKGRFTISRDNSKNTLYLQMNSLRAEDTAVYYCAKDANWGQHPDHTSFDYRGQGTLVTVSS |
| binds | binds | Anti-PSMA heavy chain-only antibody (UniAb) Clone ID 325795 (antibody, V domains shown, Heavy chain-only antibody with no light chain) VH: EVQLLESGGGLVQPGGSLRLSCAASGFTFKFYAMSWVRQAPGKGPEWVSVISGSGGSTYYADSVKGRFTISRDNSKNTLHLQMNSLRAEDTAVYFCAKEIAEASRGFDYRGQGTLVTVSS |
